Measured values taken from US20200063132A1.

Target: human Mannose 6-Phosphate Receptor (M6PR, also known as IGF2R), endogenous on HUVEC and hCMEC/D3 cells (human) (UniProt P11717)
Assay: cell-based or functional assay

human Mannose 6-Phosphate Receptor (M6PR, also known as IGF2R), endogenous on HUVEC and hCMEC/D3 cells (human), sequence (P11717 41-2491): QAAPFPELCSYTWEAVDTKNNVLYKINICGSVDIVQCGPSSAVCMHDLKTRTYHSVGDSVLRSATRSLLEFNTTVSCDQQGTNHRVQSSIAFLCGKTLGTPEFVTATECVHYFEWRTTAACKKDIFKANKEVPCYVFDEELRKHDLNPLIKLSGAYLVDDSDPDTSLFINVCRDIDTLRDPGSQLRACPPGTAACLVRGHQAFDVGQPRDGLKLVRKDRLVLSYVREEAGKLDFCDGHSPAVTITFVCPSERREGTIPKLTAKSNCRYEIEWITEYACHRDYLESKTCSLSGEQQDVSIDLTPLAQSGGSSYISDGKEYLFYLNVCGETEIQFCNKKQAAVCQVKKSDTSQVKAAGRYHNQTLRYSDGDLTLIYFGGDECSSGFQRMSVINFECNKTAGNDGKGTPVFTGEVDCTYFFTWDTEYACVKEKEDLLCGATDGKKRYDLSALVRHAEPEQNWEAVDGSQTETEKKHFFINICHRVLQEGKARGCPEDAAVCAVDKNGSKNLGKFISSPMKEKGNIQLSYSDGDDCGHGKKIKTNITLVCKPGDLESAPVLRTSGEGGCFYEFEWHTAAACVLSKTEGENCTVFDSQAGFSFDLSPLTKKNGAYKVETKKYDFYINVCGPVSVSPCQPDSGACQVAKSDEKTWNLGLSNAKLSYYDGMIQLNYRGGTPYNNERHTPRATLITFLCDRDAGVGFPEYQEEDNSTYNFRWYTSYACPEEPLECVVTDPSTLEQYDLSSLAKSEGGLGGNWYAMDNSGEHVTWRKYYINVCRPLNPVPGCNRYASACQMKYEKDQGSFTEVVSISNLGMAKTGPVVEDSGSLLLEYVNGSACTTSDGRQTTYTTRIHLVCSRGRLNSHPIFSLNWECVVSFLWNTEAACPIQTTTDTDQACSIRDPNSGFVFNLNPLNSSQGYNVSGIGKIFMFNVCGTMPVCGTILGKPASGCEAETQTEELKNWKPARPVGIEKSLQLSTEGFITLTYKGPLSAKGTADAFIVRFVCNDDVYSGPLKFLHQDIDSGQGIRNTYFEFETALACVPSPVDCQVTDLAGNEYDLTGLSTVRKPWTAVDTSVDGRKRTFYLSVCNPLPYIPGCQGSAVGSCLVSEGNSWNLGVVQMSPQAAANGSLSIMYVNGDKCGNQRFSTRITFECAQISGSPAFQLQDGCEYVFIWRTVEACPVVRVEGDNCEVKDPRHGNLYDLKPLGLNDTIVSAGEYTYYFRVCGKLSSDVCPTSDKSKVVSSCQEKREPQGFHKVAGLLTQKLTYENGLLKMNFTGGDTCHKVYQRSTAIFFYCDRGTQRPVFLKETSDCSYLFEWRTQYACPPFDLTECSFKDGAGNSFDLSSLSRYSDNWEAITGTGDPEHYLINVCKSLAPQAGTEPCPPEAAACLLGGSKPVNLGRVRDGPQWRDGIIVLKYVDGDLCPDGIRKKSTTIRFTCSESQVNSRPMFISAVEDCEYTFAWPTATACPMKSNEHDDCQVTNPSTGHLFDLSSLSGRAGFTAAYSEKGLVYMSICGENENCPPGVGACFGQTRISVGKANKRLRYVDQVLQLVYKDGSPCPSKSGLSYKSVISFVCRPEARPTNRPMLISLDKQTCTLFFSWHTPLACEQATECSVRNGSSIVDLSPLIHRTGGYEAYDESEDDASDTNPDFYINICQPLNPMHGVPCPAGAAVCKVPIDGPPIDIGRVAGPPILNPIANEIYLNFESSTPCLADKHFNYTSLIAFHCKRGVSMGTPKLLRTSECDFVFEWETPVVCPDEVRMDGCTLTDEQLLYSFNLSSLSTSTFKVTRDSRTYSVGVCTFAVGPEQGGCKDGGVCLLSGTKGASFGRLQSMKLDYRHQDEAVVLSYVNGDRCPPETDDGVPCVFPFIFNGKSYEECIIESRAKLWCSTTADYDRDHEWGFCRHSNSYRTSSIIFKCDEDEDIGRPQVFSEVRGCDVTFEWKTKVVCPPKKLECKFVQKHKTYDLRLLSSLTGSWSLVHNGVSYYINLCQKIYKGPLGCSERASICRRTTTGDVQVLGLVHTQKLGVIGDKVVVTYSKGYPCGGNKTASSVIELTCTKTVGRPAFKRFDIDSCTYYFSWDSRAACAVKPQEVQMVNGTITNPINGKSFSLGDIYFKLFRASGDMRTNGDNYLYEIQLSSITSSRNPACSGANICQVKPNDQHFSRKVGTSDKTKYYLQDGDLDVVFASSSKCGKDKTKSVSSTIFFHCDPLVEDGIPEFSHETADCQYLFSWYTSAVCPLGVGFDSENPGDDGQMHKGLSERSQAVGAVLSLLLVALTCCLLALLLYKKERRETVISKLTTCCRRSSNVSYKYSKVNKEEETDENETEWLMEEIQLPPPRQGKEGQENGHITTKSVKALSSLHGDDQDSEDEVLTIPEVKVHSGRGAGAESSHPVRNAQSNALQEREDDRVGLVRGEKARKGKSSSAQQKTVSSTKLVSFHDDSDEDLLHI

For “IDUA-myc fusion protein (human α-L-iduronidase with myc tag, from conditioned medium of HEK 293-based cells stably overexpressing human IDUA cDNA) (from UniProt P35475 28-653) (enzyme)”, the IC50 of the M6P inhibitor (mannose 6-phosphate, a small molecule) on uptake of IDUA-myc by HUVEC, 1 h, intracellular IDUA activity was 348 µM and the IC50 of the M6P inhibitor (mannose 6-phosphate, a small molecule) on uptake of IDUA-myc by hCMEC/D3 cells, 1 h, intracellular IDUA activity was 57.2 µM.
